Biological target: T1, mCherry-LacR-MITF (human, UniProt O75030-9 1-419)
T1 sequence: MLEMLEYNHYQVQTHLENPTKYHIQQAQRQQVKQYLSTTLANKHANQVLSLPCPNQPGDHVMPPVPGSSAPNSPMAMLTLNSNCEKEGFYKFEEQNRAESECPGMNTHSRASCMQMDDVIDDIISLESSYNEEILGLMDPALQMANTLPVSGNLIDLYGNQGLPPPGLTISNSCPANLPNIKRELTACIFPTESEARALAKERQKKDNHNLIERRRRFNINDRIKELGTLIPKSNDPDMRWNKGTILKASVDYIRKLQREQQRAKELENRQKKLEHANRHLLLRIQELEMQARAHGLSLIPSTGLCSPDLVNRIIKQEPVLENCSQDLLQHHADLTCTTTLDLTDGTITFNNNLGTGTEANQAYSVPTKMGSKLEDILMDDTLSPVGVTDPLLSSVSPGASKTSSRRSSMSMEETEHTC
Test: LacR/LacO nuclear tethering assay

- median enrichment of GFP at the mCherry dot over the rest of the nucleus: 7 fold
B1: NBS1-GFP (natural protein)
chain: MWKLLPAAGPAGGEPYRLLTGVEYVVGRKNCAILIENDQSISRNHAVLTANFSVTNLSQTDEIPVLTLKDNSKYGTFVNEEKMQNGFSRTLKSGDGITFGVFGSKFRIEYEPLVACSSCLDVSGKTALNQAILQLGGFTVNNWTEECTHLVMVSVKVTIKTICALICGRPIVKPEYFTEFLKAVESKKQPPQIESFYPPLDEPSIGSKNVDLSGRQERKQIFKGKTFIFLNAKQHKKLSSAVVFGGGEARLITEENEEEHNFFLAPGTCVVDTGITNSQTLIPDCQKKWIQSIMDMLQRQGLRPIPEAEIGLAVIFMTTKNYCDPQGHPSTGLKTTTPGPSLSQGVSVDEKLMPSAPVNTTTYVADTESEQADTWDLSERPKEIKVSKMEQKFRMLSQDAPTVKESCKTSSNNNSMVSNTLAKMRIPNYQLSPTKLPSINKSKDRASQQQQTNSIRNYFQPSTKKRERDEENQEMSSCKSARIETSCSLLEQTQPATPSLWKNKEQHLSENEPVDTNSDNNLFTDTDLKSIVKNSASKSHAAEKLRSNKKREMDDVAIEDEVLEQLFKDTKPELEIDVKVQKQEEDVNVRKRPRMDIETNDTFSDEAVPESSKISQENEIGKKRELKEDSLWSAKEISNNDKLQDDSEMLPKKLLLTEFRSLVIKNSTSRNPSGINDDYGQLKNFKKFKKVTYPGAGKLPHIIGGSDLIAHHARKNTELEEWLRQEMEVQNQHAKEESLADDLFRYNPYLKRRR
